What was measured:
[1] = glucose inhibition measurement (residual glucosidase activity in the presence of glucose); format: biochemical; details: for Residual glucosidase activity, Glc 0 mM / Residual glucosidase activity, Glc 1 mM / Residual glucosidase activity, Glc 5 mM / Residual glucosidase activity, Glc 10 mM / Residual glucosidase activity, Glc 20 mM / Residual glucosidase activity, Glc 50 mM / Residual glucosidase activity, Glc 100 mM / Residual glucosidase activity, Glc 200 mM: Example 9; for Residual glucosidase activity, Glc 0 mM: glucose 0 mM (reference set to 100); for Residual glucosidase activity, Glc 1 mM: glucose 1 mM; for Residual glucosidase activity, Glc 5 mM: glucose 5 mM; for Residual glucosidase activity, Glc 10 mM: glucose 10 mM; for Residual glucosidase activity, Glc 20 mM: glucose 20 mM; for Residual glucosidase activity, Glc 50 mM: glucose 50 mM; for Residual glucosidase activity, Glc 100 mM: glucose 100 mM; for Residual glucosidase activity, Glc 200 mM: glucose 200 mM; for resistance to glucose inhibition (in words): compared with P3AaBGL1 / β-glucosidase without the mutation
Protocol: To 10 μl of 20 mM pNPG, 10 μl of 1M sodium acetate buffer solution (pH 5.0) and from 4 to 10 μl of 1M glucose (final concentration of from 20 to 50 mM) were added, followed by addition of water up to the total volume of 150 μl. Thereafter, 50 μl of the diluted enzyme sample was introduced for reacting them at 37° C. for 10 minutes. As a control, a glucose-free reaction mixture was used, and then the reaction was carried out at 37° C. for 10 minutes, in the same manner. 100 μl of each reaction mixture was mixed with 100 μl of 2% sodium carbonate solution to terminate reaction, and then the amount of liberated p-nitrophenol was colorimetrically measured at a wavelength of 450 nm.
The ratio (%) of the colorimetric value of each reaction mixture to the colorimetric value of the control sample (glucose-free sample) was defined as the residual activity after glucose inhibition.
(§1) By using the above-obtained culture supernatant of the P3AaBGL1 mutant strain, a diluted enzyme sample was prepared, and then the enzymatic activity of the sample was measured in accordance with the above-described activity measurement method. Further, the glucose inhibition at a final glucose concentration of from 0.1 to 200 mM and the thermostability at a warming temperature of from 50 to 75° C. were measured for evaluation.
(§2) 11F10 strain, 22A12 strain, 28C02 strain, 29F09 strain and mutBGL1 strain selected from the mutant strains, and ASP3326 strain as the original strain were cultivated in a Sakaguchi flask containing 100 ml of YPD medium at 30° C. for two days. To each of the culture supernatants obtained by cultivating them, […] was added until 80% saturation was reached, thereby to carry out ammonium sulfate precipitation at 4° C. for 2 hours. Thereafter, centrifugation was carried out to collect pellets, and the pellets were dissolved in 10 ml of 10 mM citrate phosphate buffer solution (pH 7.0). Then, desalting and concentration were carried out by using an ultrafiltration membrane having MWCO of 100,000, thereby to recover 1 ml of a crude liquid. Thus recovered crude liquid was purified by using Hitrap QXL column to collect a fraction of a peak of pNPG activity, thereby to obtain a purified sample. Elution was carried out by using a 10 mM citrate phosphate buffer solution (pH 7.0) and a NaCl concentration gradient (0 to 1M).
(§3) In the same manner as in Example 1, the residual glucosidase activities after glucose inhibition at a glucose concentration of from 0.1 to 200 mM were measured. Further, the residual glucosidase activities after heat treatment at a temperature of from 50 to 75° C. for 10 minutes were measured.

[2] = thermostability measurement (residual glucosidase activity after heat treatment); format: physicochemical; details: for Residual glucosidase activity, Temp 50° C. / Residual glucosidase activity, Temp 55° C. / Residual glucosidase activity, Temp 60° C. / Residual glucosidase activity, Temp 65° C. / Residual glucosidase activity, Temp 70° C. / Residual glucosidase activity, Temp 73° C. / Residual glucosidase activity, Temp 75° C. / Residual glucosidase activity, Untreated: Example 9; for Residual glucosidase activity, Temp 50° C.: 10 minutes at 50° C.; for Residual glucosidase activity, Temp 55° C.: 10 minutes at 55° C.; for Residual glucosidase activity, Temp 60° C.: 10 minutes at 60° C.; for Residual glucosidase activity, Temp 65° C.: 10 minutes at 65° C.; for Residual glucosidase activity, Temp 70° C.: 10 minutes at 70° C.; for Residual glucosidase activity, Temp 73° C.: 10 minutes at 73° C.; for Residual glucosidase activity, Temp 75° C.: 10 minutes at 75° C.; for Residual glucosidase activity, Untreated: no heat treatment (reference set to 100); for thermostability (in words): compared with P3AaBGL1 / β-glucosidase without the mutation
Protocol: To 10 μl of 20 mM pNPG, 10 μl of 1M sodium acetate buffer solution (pH 5.0) and 130 μl of water were added, and then 50 μl of a diluted enzyme sample preliminarily heat-treated at […] for 10 minutes was introduced for reacting them at 37° C. for 10 minutes. As a control, a diluted enzyme sample which was not subjected to the heat treatment was used, and then the reaction was carried out at 37° C. for 10 minutes, in the same manner. 100 μl of each reaction mixture was mixed with 100 μl of 2% sodium carbonate solution to terminate reaction, and then the amount of liberated p-nitrophenol was colorimetrically measured at a wavelength of 450 nm.
The ratio (%) of the colorimetric value of each reaction mixture to the colorimetric value of the control sample (untreated sample) was defined as the residual activity after heat treatment.
as §1, §2, §3

[3] = glucosidase activity measurement of culture supernatant (pNPG); format: biochemical
Protocol: A mutant strain which formed a large colony was selected from P3AaBGL1 mutant strain library. Then, thus selected strain and P3ASP3326 strain as the original strain were cultivated in 150 μl/well (96-well plate) of YES medium at 30° C. for two days. 50 μl of each culture supernatant was diluted by 150 μl of 50 mM acetate buffer (pH 5.0) to prepare a diluted enzyme sample. Then, the enzymatic activity of the sample was measured in accordance with the following method.
To 10 μl of 20 mM p-nitrophenyl-β-D-glucoside (hereinafter abbreviated as pNPG), 10 μl of 1M sodium acetate buffer solution (pH 5.0) and 130 μl of water were added, and then 50 μl of the diluted enzyme sample was introduced for reacting them at 37° C. for 10 minutes. 100 μl of the reaction mixture was mixed with 100 μl of 2% sodium carbonate solution to terminate reaction, and then the amount of free p-nitrophenol was colorimetrically measured at a wavelength of 450 nm.
The amount of enzyme that produces 1 μmol of p-nitrophenol per minute was defined as 1 U.
The P3AaBGL1 mutant strain obtained as above was cultivated in YES medium at 30° C. for one day. 100 μl of the culture broth was inoculated on 5 ml of YPD medium (1% of yeast extract, 2% of peptone, and 2% of glucose), followed by cultivation at 30° C. for two days. Thereafter, the culture broth was centrifuged to obtain a culture supernatant.
as §1

[4] = culture supernatant, relative to 0 mM glucose, Tables 7-10

6H05
Residual activity, Glc 20 mM [1, 4]: 41%
Residual activity, Glc 50 mM [1, 4]: 23%
Residual activity, Temp 65° C. ([2]; culture supernatant warmed 10 minutes at 65° C., relative to no heat treatment, Tables 7-10): 73%
Residual activity, Temp 67° C. ([2]; culture supernatant warmed 10 minutes at 67° C., relative to no heat treatment, Tables 7-10): 59%
Activity ([3]; pNPG, pH 5.0, 37° C., 10 minutes, Tables 7-10): 525 mU/ml

B1: I260F: modified-type P3AaBGL1 with I260F only (mutation 1) (protein)
chain: MKITAVIALLFSLAAASPIPVADPGVVSVSLKKRADELAFSPPFYPSPWANGQGEWAEAYQRAVAIVSQMTLDEKVNLTTGTGWELEKCVGQTGGVPRLNIGGMCLQDSPLGIRDSDYNSAFPAGVNVAATWDKNLAYLRGQAMGQEFSDKGIDVQLGPAAGPLGRSPDGGRNWEGFSPDPALTGVLFAETIKGIQDAGVVATAKHYILNEQEHFRQVAEAAGYGFNISDTISSNVDDKTIHEMYLWPFADAVRAGVGAFMCSYNQINNSYGCQNSYTLNKLLKAELGFQGFVMSDWGAHHSGVGSALAGLDMSMPGDITFDSATSFWGTNLTIAVLNGTVPQWRVDDMAVRIMAAYYKVGRDRLYQPPNFSSWTRDEYGFKYFYPQEGPYEKVNHFVNVQRNHSEVIRKLGADSTVLLKNNNALPLTGKERKVAILGEDAGSNSYGANGCSDRGCDNGTLAMAWGSGTAEFPYLVTPEQAIQAEVLKHKGSVYAITDNWALSQVETLAKQASVSLVFVNSDAGEGYISVDGNEGDRNNLTLWKNGDNLIKAAANNCNNTIVVIHSVGPVLVDEWYDHPNVTAILWAGLPGQESGNSLADVLYGRVNPGAKSPFTWGKTREAYGDYLVRELNNGNGAPQDDFSEGVFIDYRGFDKRNETPIYEFGHGLSYTTFNYSGLHIQVLNASSNAQVATETGAAPTFGQVGNASDYVYPEGLTRISKFIYPWLNSTDLKASSGDPYYGVDTAEHVPEGATDGSPQPVLPAGGGSGGNPRLYDELIRVSVTVKNTGRVAGDAVPQLYVSLGGPNEPKVVLRKFDRLTLKPSEETVWTTTLTRRDLSNWDVAAQDWVITSYPKKVHVGSSSRQLPLHAALPKVQ
Residual glucosidase activity, Glc 0 mM [1]: 100%
Residual glucosidase activity, Glc 1 mM [1]: 95.9%
Residual glucosidase activity, Glc 5 mM [1]: 73.6%
Residual glucosidase activity, Glc 10 mM [1]: 55.6%
Residual glucosidase activity, Glc 20 mM [1]: 39.0%
Residual glucosidase activity, Glc 50 mM [1]: 20.2%
Residual glucosidase activity, Glc 100 mM [1]: 11.4%
Residual glucosidase activity, Glc 200 mM [1]: 6.3%
resistance to glucose inhibition (in words) [1]: increase
Residual glucosidase activity, Temp 50° C. [2]: 97.0%
Residual glucosidase activity, Temp 55° C. [2]: 91.2%
Residual glucosidase activity, Temp 60° C. [2]: 87.7%
Residual glucosidase activity, Temp 65° C. [2]: 65.2%
Residual glucosidase activity, Temp 70° C. [2]: 22.6%
Residual glucosidase activity, Temp 73° C. [2]: 1.8%
Residual glucosidase activity, Temp 75° C. [2]: 1.8%
Residual glucosidase activity, Untreated [2]: 100%
thermostability (in words) [2]: increase
Activity ([3]; Example 9, Table 11): 457 mU/ml

B2: N458S: modified-type P3AaBGL1 with N458S only (mutation 3) (protein)
chain: MKITAVIALLFSLAAASPIPVADPGVVSVSLKKRADELAFSPPFYPSPWANGQGEWAEAYQRAVAIVSQMTLDEKVNLTTGTGWELEKCVGQTGGVPRLNIGGMCLQDSPLGIRDSDYNSAFPAGVNVAATWDKNLAYLRGQAMGQEFSDKGIDVQLGPAAGPLGRSPDGGRNWEGFSPDPALTGVLFAETIKGIQDAGVVATAKHYILNEQEHFRQVAEAAGYGFNISDTISSNVDDKTIHEMYLWPFADAVRAGVGAIMCSYNQINNSYGCQNSYTLNKLLKAELGFQGFVMSDWGAHHSGVGSALAGLDMSMPGDITFDSATSFWGTNLTIAVLNGTVPQWRVDDMAVRIMAAYYKVGRDRLYQPPNFSSWTRDEYGFKYFYPQEGPYEKVNHFVNVQRNHSEVIRKLGADSTVLLKNNNALPLTGKERKVAILGEDAGSNSYGANGCSDRGCDSGTLAMAWGSGTAEFPYLVTPEQAIQAEVLKHKGSVYAITDNWALSQVETLAKQASVSLVFVNSDAGEGYISVDGNEGDRNNLTLWKNGDNLIKAAANNCNNTIVVIHSVGPVLVDEWYDHPNVTAILWAGLPGQESGNSLADVLYGRVNPGAKSPFTWGKTREAYGDYLVRELNNGNGAPQDDFSEGVFIDYRGFDKRNETPIYEFGHGLSYTTFNYSGLHIQVLNASSNAQVATETGAAPTFGQVGNASDYVYPEGLTRISKFIYPWLNSTDLKASSGDPYYGVDTAEHVPEGATDGSPQPVLPAGGGSGGNPRLYDELIRVSVTVKNTGRVAGDAVPQLYVSLGGPNEPKVVLRKFDRLTLKPSEETVWTTTLTRRDLSNWDVAAQDWVITSYPKKVHVGSSSRQLPLHAALPKVQ
Residual glucosidase activity, Glc 0 mM [1]: 100%
Residual glucosidase activity, Glc 1 mM [1]: 92.7%
Residual glucosidase activity, Glc 5 mM [1]: 68.1%
Residual glucosidase activity, Glc 10 mM [1]: 52.1%
Residual glucosidase activity, Glc 20 mM [1]: 35.9%
Residual glucosidase activity, Glc 50 mM [1]: 17.7%
Residual glucosidase activity, Glc 100 mM [1]: 10.4%
Residual glucosidase activity, Glc 200 mM [1]: 6.0%
resistance to glucose inhibition (in words) [1]: without decreasing
Residual glucosidase activity, Temp 50° C. [2]: 98.6%
Residual glucosidase activity, Temp 55° C. [2]: 95.7%
Residual glucosidase activity, Temp 60° C. [2]: 91.6%
Residual glucosidase activity, Temp 65° C. [2]: 64.2%
Residual glucosidase activity, Temp 70° C. [2]: 19.4%
Residual glucosidase activity, Temp 73° C. [2]: 0.8%
Residual glucosidase activity, Temp 75° C. [2]: 1.6%
Residual glucosidase activity, Untreated [2]: 100%
thermostability (in words) [2]: can be improved
Activity ([3]; Example 9, Table 11): 586 mU/ml
